Each block holds one molecule with its values, some of them ahead of it.
Experiments:
[1] = target: TRBP (Homo sapiens) (UniProt Q15633); conditions: cited from earlier work
[2] = target: human Dicer, wild type, full-length (human) (UniProt Q9UPY3); test: ITC

Molecule: TRBP (from UniProt Q15633)
Kd [1]: 54000 nM

Kd [2]: 2.8 nM
dH [2]: -15.9 kcal/mol
stoichiometry N [2]: 0.84
B1: human TRBP (isoform TRBP2, 366 residues), full-length, residues 1-366 (natural protein)
chain: MSEEEQGSGTTTGCGLPSIEQMLAANPGKTPISLLQEYGTRIGKTPVYDLLKAEGQAHQPNFTFRVTVGDTSCTGQGPSKKAAKHKAAEVALKHLKGGSMLEPALEDSSSFSPLDSSLPEDIPVFTAAAAATPVPSVVLTRSPPMELQPPVSPQQSECNPVGALQELVVQKGWRLPEYTVTQESGPAHRKEFTMTCRVERFIEIGSGTSKKLAKRNAAAKMLLRVHTVPLDARDGNEVEPDDDHFSIGVGSRLDGLRNRGPGCTWDSLRNSVGEKILSLRSCSLGSLGALGPACCRVLSELSEEQAFHVSYLDIEELSLSGLCQCLVELSTQPATVCHGSATTREAARGEAARRALQYLKIMAGSK

Kd [2]: 4.3 nM
dH [2]: -23.2 kcal/mol
stoichiometry N [2]: 1.35
B2: TRBP3: third dsRBD of human TRBP with its N-terminal extension, residues 258-366 (domain or fragment)
chain: NRGPGCTWDSLRNSVGEKILSLRSCSLGSLGALGPACCRVLSELSEEQAFHVSYLDIEELSLSGLCQCLVELSTQPATVCHGSATTREAARGEAARRALQYLKIMAGSK

— publication PMC4320653
